Key:
Settings in all cases: remark: other sources report otherwise
[1] = biological target: recombinant homotrimeric HA, A/duck/Yangzhou/02/05 H8N4 (Influenza A virus A/duck/Yangzhou/02/2005 (H8N4)); experiment: trimeric HA microarray, transfection set 2
[2] = biological target: T1, recombinant homotrimeric HA, A/Wisconsin/67/05 H3N2 (Influenza A virus A/Wisconsin/67/05 (H3N2)); experiment: trimeric HA microarray, transfection set 2
[3] = biological target: T2, recombinant homotrimeric HA, A/Anhui/1/05 H5N1 (Influenza A virus A/Anhui/1/05 (H5N1)); experiment: trimeric HA microarray, transfection set 2
[4] = biological target: recombinant homotrimeric HA, A/Netherlands/219/03 H7N7 (Influenza A virus A/Netherlands/219/03 (H7N7)); experiment: trimeric HA microarray, transfection set 2
[5] = biological target: T2, recombinant homotrimeric HA, …; experiment: trimeric HA microarray, transfection set 1
[6] = biological target: T1, recombinant homotrimeric HA, …; experiment: trimeric HA microarray, transfection set 5
[7] = biological target: recombinant homotrimeric HA, A/Hong Kong/2108/03 H9N2 (Influenza A virus A/Hong Kong/2108/03 (H9N2)); experiment: trimeric HA microarray, transfection set 3
[8] = biological target: recombinant homotrimeric HA, A/chicken/Vietnam/NCVD-016/08 H5N1 (Influenza A virus A/chicken/Vietnam/NCVD-016/08 (H5N1)); experiment: trimeric HA microarray, transfection set 3
[9] = biological target: T3, recombinant homotrimeric HA, A/Indonesia/5/05 H5N1 (Influenza A virus A/Indonesia/5/05 (H5N1)); experiment: trimeric HA microarray, transfection set 3
[10] = biological target: T4, recombinant homotrimeric HA, A/Vietnam/1203/04 H5N1 (Influenza A virus A/Vietnam/1203/04 (H5N1)); experiment: trimeric HA microarray, transfection set 3
[11] = biological target: T5, recombinant homotrimeric HA, A/swine/Ontario/01911-2/99 H4N6 (Influenza A virus A/swine/Ontario/01911-2/99 (H4N6)); experiment: trimeric HA microarray, transfection set 3
[12] = biological target: T6, recombinant homotrimeric HA, A/Japan/305/57 H2N2 (Influenza A virus A/Japan/305/57 (H2N2)); experiment: trimeric HA microarray, transfection set 3
[13] = biological target: T7, recombinant homotrimeric HA, A/California/4/09 H1N1 (Influenza A virus A/California/4/09 (H1N1)); experiment: trimeric HA microarray, transfection set 3
[14] = biological target: T8, recombinant homotrimeric HA, A/Solomon Islands/3/06 H1N1 (Influenza A virus A/Solomon Islands/3/06 (H1N1)); experiment: trimeric HA microarray, transfection set 3
[15] = biological target: T9, recombinant homotrimeric HA, A/South Carolina/1/18 H1N1 (Influenza A virus A/South Carolina/1/18 (H1N1)); experiment: trimeric HA microarray, transfection set 3
[16] = biological target: recombinant homotrimeric HA, A/Egypt/3300-NAMRU3/08 H5N1 (Influenza A virus A/Egypt/3300-NAMRU3/08 (H5N1)); experiment: trimeric HA microarray, transfection set 3
[17] = biological target: recombinant homotrimeric HA, A/common magpie/Hong Kong/5052/07 H5N1 (Influenza A virus A/common magpie/Hong Kong/5052/07 (H5N1)); experiment: trimeric HA microarray, transfection set 3
[18] = biological target: recombinant soluble homotrimeric HA of A/Hong Kong/2108/03 - H9N2 (Influenza A virus A/HK/2108/2003 (H9N2)); experiment: micro-array; captured IgG, V5-tagged trimeric HA
[19] = biological target: recombinant soluble homotrimeric HA of A/Hong Kong/2108/03 (H9N2) (Influenza A virus A/Hong Kong/2108/03 (H9N2)); experiment: microarray, control antibody, trimeric HA
[20] = biological target: T3, recombinant homotrimeric HA, …; experiment: trimeric HA microarray, transfection set 4
[21] = biological target: T4, recombinant homotrimeric HA, …; experiment: trimeric HA microarray, transfection set 4
[22] = biological target: T5, recombinant homotrimeric HA, …; experiment: trimeric HA microarray, transfection set 4
[23] = biological target: T6, recombinant homotrimeric HA, …; experiment: trimeric HA microarray, transfection set 4
[24] = biological target: T7, recombinant homotrimeric HA, …; experiment: trimeric HA microarray, transfection set 4
[25] = biological target: T8, recombinant homotrimeric HA, A/Solomon …; experiment: trimeric HA microarray, transfection set 4
[26] = biological target: T9, recombinant homotrimeric HA, A/South …; experiment: trimeric HA microarray, transfection set 4
[27] = biological target: T10, recombinant homotrimeric HA, A/northern shoveler/California/HKWF115/07 (Influenza A virus A/northern shoveler/California/HKWF115/2007 (H6N1)); experiment: trimeric HA microarray, transfection set 2
[28] = biological target: recombinant homotrimeric HA, A/Hong Kong/1073/99 H9N2 (Influenza A virus A/Hong Kong/1073/99 (H9N2)); experiment: trimeric HA microarray, transfection set 2
[29] = biological target: T10, recombinant homotrimeric HA, A/northern …; experiment: trimeric HA microarray, transfection set 1

Row | Binder | Trimeric HA Binding RLU [7] | Trimeric HA Binding RLU [8] | Trimeric HA Binding RLU [9] | Trimeric HA Binding RLU [10] | Trimeric HA Binding RLU [11] | Trimeric HA Binding RLU [12] | Trimeric HA Binding RLU [13] | Trimeric HA Binding RLU [14] | Trimeric HA Binding RLU [15] | Trimeric HA Binding RLU [16] | Trimeric HA Binding RLU [17] | Trimeric HA Binding RLU [20] | Trimeric HA Binding RLU [21] | Trimeric HA Binding RLU [22] | Trimeric HA Binding RLU [23] | Trimeric HA Binding RLU [24] | Trimeric HA Binding RLU [25] | Trimeric HA Binding RLU [26] | further results
1 | TCN-504 (3251_K17) (antibody, V domains shown) VH: QVQLQESGPGLVKPSETLSLTCAVSGVSISNIDFYWGWIRQPPGKGLEWIGNIYYTGITFYNPSLSSRVAISIDTSKNQFSLTLTSVTAADTAMYYCARHYGDSEAINDAFDIWGQGTMLTVSS VL: EIVMTQSPATLSVSPGERATLSCRASQSVGNSLAWYQQRPGQAPRLLIYGASTRATGIPPRFSGSGSGTEFTLTISSLQTEDFAVYYCQQYINWRPLSFGGGTKVEIK | 36 RLU | 10300 RLU | 18600 RLU | 13300 RLU | 34500 RLU | 36000 RLU | 18600 RLU | 32700 RLU | 27600 RLU | 18000 RLU | 17800 RLU | 18200 RLU | 25700 RLU | 21800 RLU | 19600 RLU | 549 RLU | 14600 RLU | 21700 RLU | Trimeric HA Binding RLU [1]: 17800 RLU; Trimeric HA Binding RLU [2]: 21600 RLU; Trimeric HA Binding RLU [3]: 31000 RLU; Trimeric HA Binding RLU [4]: 19300 RLU; Trimeric HA Binding RLU [5]: 29000 RLU; Trimeric HA Binding RLU [6]: 38100 RLU; Trimeric HA Binding: RLU [18]: 7 RLU; Trimeric HA Binding: RLU [19]: 454 RLU
2 | TCN-523 (5248_A17) (antibody, V domains shown) VH: QVQLVQSGAEVKKPGSSVKVSCKASGGSFSNYAFSWVRQAPGQGLEWMGGTIPLLGTTNYAQKFQGRVTISADQFTSTAYMELGSLRSEDTAVYYCTRRKMTTAFDSWGQGTLVTVSS VL: QPVLTQPPSASASLGASVTLTCTLSSAYSNYKVDWYQQRPGKGPRFVMRVGTGGIVGSKGDGIPDRFSVLGSGLNRYLTIKNIQEEDESDYHCGADHGSGSNFVSPYVFGGGTKLTVL | 51 RLU | 18900 RLU | 22000 RLU | 22100 RLU | 1640 RLU | 4550 RLU | 19400 RLU | 11000 RLU | 23700 RLU | 29100 RLU | 640 RLU | 24500 RLU | 30900 RLU | 850 RLU | 3840 RLU | 28800 RLU | 371 RLU | 23000 RLU | Trimeric HA Binding RLU [27]: 21200 RLU; Trimeric HA Binding RLU [28]: 31300 RLU; Trimeric HA Binding RLU [29]: 9050 RLU
